The text below walks through data of publication PMC2917274, “Structure of Staphylococcus aureus adenylosuccinate lyase (PurB) and assessment of its potential as a target for structure-based inhibitor discovery” (Acta Crystallographica Section D: Biological Crystallography, 2010).

In one series the target is T1, SaPurB (Staphylococcus aureus, UniProt Q7A0G9).
T1 construct: gene purB; full length (domains described over residues 1-431); N-terminal His tag removed by TEV protease (modified pET15b); expressed in E. coli BL21(DE3) pLysS; dimer in gel filtration, homotetramer in crystal, each active site from three subunits
T1 sequence (Q7A0G9 1-431): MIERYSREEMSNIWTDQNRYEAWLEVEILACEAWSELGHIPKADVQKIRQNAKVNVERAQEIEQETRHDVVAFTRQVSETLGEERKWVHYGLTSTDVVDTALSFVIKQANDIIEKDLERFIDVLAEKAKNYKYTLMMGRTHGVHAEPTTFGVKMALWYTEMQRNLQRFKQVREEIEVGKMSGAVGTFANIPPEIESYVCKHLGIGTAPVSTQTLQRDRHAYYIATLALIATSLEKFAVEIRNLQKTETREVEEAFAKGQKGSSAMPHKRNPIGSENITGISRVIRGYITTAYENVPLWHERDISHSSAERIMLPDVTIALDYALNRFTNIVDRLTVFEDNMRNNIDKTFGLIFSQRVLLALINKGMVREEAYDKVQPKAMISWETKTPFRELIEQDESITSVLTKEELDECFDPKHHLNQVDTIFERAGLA
The series is described as follows: X-ray crystal structure, […] Å. The format is binding. The following applies: co-crystallized with 25 mM AMP, pH 6.2, 293 K; active site; oxalate tentatively modelled nearby.

Series [1] deals with the molecule itself. Kind of series: crystal structure; 2.5 A, space group I222, one chain per asymmetric unit, tetramer built by crystallographic twofold axes; with AMP and oxalate; crystals at 293 K from 45% PEG 200, 0.2 M NaCl, 0.1 M sodium phosphate pH 6.2.
Series [2] deals with the molecule itself. Kind of series: SEC; Superdex 200 26/60, 50 mM Tris-HCl, 250 mM NaCl pH 7.5, column calibrated with molecular-weight standards; final stage of purification.

For `Nc1ncnc2c1ncn2[C@@H]1O[C@H](COP(=O)(O)O)[C@@H](O)[C@H]1O` [AMP], on SaPurB, the “X-ray crystal structure, 2.5 Å” value is listed as “The structure of AMP in the active site of SaPurB”.

B1: Staphylococcus aureus adenylosuccinate lyase (PurB) (enzyme, UniProt Q2FFI7 1-431, looked up)
chain: MIERYSREEMSNIWTDQNRYEAWLEVEILACEAWSELGHIPKADVQKIRQNAKVNVERAQEIEQETRHDVVAFTRQVSETLGEERKWVHYGLTSTDVVDTALSFVIKQANDIIEKDLERFIDVLAEKAKNYKYTLMMGRTHGVHAEPTTFGVKMALWYTEMQRNLQRFKQVREEIEVGKMSGAVGTFANIPPEIESYVCKHLGIGTAPVSTQTLQRDRHAYYIATLALIATSLEKFAVEIRNLQKTETREVEEAFAKGQKGSSAMPHKRNPIGSENITGISRVIRGYITTAYENVPLWHERDISHSSAERIMLPDVTIALDYALNRFTNIVDRLTVFEDNMRNNIDKTFGLIFSQRVLLALINKGMVREEAYDKVQPKAMISWETKTPFRELIEQDESITSVLTKEELDECFDPKHHLNQVDTIFERAGLA
notes: domains I-III span residues 1-431; theoretical subunit mass 49.6 kDa; Vector pET15b changed to carry a TEV site in place of the thrombin site; Dimer by gel filtration, tetramer in the crystal; also called SaPurB
Turning to B1, the “stoichiometry N” value in series [1] is 4; in series [2], 2.
